From the nanobody polyreactivity screen of Harvey et al. (2022)

Assay: yeast display, Sf9 membrane polyspecificity reagent, FACS + sequencing; frameworks hold sequencing errors
In short: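 A synthetic nanobody library was expressed on Saccharomyces cerevisiae BJ5465 by galactose induction for 36–48 hours. The library was stained for 1 hour at 4 °C with 10% biotinylated, detergent-solubilized Sf9 membrane reagent and enriched with streptavidin microbeads before FACS. Low and high (top ~1%) gates were set on anti-HA fluorescence for expression and streptavidin fluorescence for reagent binding, and each polyreactivity label reflects the gate of origin.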

Sequence	polyreactivity (PSR sort gate)
QDQHVESGGGLVQAGGSLRLSCAASGGIFYTYTMGWYRQAPGKEREFVAAITRSGDRTYYADSVKGRFTISRDNAKNTGYLQMNSLKPEDTAVYYCNTVTRKNPSGLALDEYNYCGQGTQVTVSS	high polyreactivity
QVQLVESGGGLVQAGGSLRLSCAASGSIFAANAMGWYRQAPGKERELVAAITSGGSTDYADSVKGRFTISRDNAKNTVYLEMNSLKPEDTAVYYCAKGYVPYAIFDYWGQGTQVTVSS	low polyreactivity
QDQLVESGGGLVQAGGSLRLSCASSGFTFYVYAMGWYRQAPGKERELVAAISRSGSRTYYADSVKGRVTISRDNAQKTVYLQMNSLKPEDTAVYYCARVRPRGLYFVLHYDYWGQGTQVTVSS	high polyreactivity
QVQLVESGGGLVQAGGSHRLSCAASGRTFRRNTMGWYRQAPGKERELVAAISSSGSSTYYADSVKGRFTISRDNAKNSVYLQMNSLKPEDTAVYYCAATGYPRFGYWGQGTQVTVSS	high polyreactivity
QVQLVESGGGLVQAGGSLRLSCAASGRIFYYYGMGWYRQAPGKERELVAAISNGGRTYYADSVKGRFTISRDNAKNTVYLQMTSLKPEDTAVYYCAALTRGRGGYDYWGQGTQVTVSS	high polyreactivity
QVQLVESAGGLVQAGGSLRLSCAASGSILTSYAMGWYRQAPGKERELVAAINGSGGSTFYADSVKGRFTISRDNAKNTVYLQMNSLKPEDTAVYYCNTGGPRGTTYDYWGQGTQVTVSS	low polyreactivity
QVQLVESGGGLVQAGGSLRLSCAASGSTFTPYAMGWYRPAPGKEREFVAAITSIGGSTYYADSVKGRFTISRDHAKFTVYLQMNSLKPEDTAVYYCAADYYEWSLWNDYWGQGTQVTVSS	high polyreactivity
QVQLVESGGGLVQAGGSLRLSCAASGLTFGSYAMGWYRQAPGKERELVAAITWSGGSTYYADSVKGRFTISRDNAKNTVYLQMNSLKPEDTAVYYCAVYSTEYKLLWGGIAYDYWGQGTQVTVSS	low polyreactivity
QVQLVESGGGLVQAGGSLRLSCAASGSTFSKKAMGWYRQAPGKERELVAAITGRGGNTYYADSVKGRFTLSRDNAKNTVYLQMNSLKPEDTAVYYCAASWATYWFYRKAYNYWGQGTQVTVSS	high polyreactivity
QVQLVESGGGLVHAGGSLRLSCAASGSIFHFNAMGWYRQAPGKERELVARISIGGGSTYYADSVKGRFTISRDNAKNTVYFQMNSLKPEDTAVYSCAVDGSPRNKYDYWGQGTQVTVSS	high polyreactivity
QVQLVESGGGLVQAGGSLRLSCAASGSTFKTYVMGWYRQAPGKERELVAGISDSGGTTYYADSVKGRFTISRDNAKNTVYLQMNSLKPEDTAGYYCAAVLYRRYTRARLDYWGQGTQVTVSS	high polyreactivity
QVQLVESGGGLVQAGGSLRLSCAASGRIFRYYAMGWYRQAPGKESELVAAITASGGSTYYADSVKGRFTISRDNAKNTVYLQMNSLKPEDTAVYYCATEYVVYRSWVPKYGYWGQGTQVTVSS	high polyreactivity
QVQLVESGGGLFQPGGILRLSFAASGSTIIDYAMGWYRQEPWKERELVASITWSGGSTYYADSVKGRFTFSRDNAKNTVYLQINCLKPVDSAVYYCNSDVNVGLEVLIVYEYDYWGQGTQVTVSS	low polyreactivity
QVQLVESGGGLVQAGGSLRLSCAASGFTFSFYAMGWYIQAPGKERELVAVISKSGGRTYYADSVKGRFTISRDNAKNTVYLQMNSLKPEDTAVYYCAAKRTSTRIYTFEYWGQGTQVTVSS	high polyreactivity
QVQLVESGGGLVQAGGSLRLSCAASGITFARYAMGWYRQAPGKERELVAAISSRGGRTYYADSVKGRFTISRDNAKNTVYLQMNSLKPEDTAVYYCAADYVWSTISGYWGQGTQVTVSS	high polyreactivity
QVQLVESGGGLVQAGGSLRLTCAASGFIFYNNAMGWYRQAPGKERELVASIRWSGASTYYADSVKGRFTISRDNAKNTVYLQMNSLKPEDTAVYYCAARQSRLNSYFSHRFWRYDYWGQGTQVTVSS	high polyreactivity
QVQLVESGGGLVQAGGSLRLSCAASGSIFSPYAMGWYRQAPGKERELVAAITDSGGSTYYADSVKGRFTISRDNAKYTVYLQMNSLKPEDTAVYYCAADLRYWSWAFDYWGQGTQVTVSS	low polyreactivity
QVQLVESGGGLVQAGGSLRLSCAASGSTFDYSGMGWDIQAPGKERELVATITRRGGNTYYADSVKGRITISRDNANNTDYLQMNSLKPEDTAVYNCNVTPVRGSPEYGNWGQGTQVTVSS	high polyreactivity
QVQVVESGGGLVQAGGSLRLSCAASGRTFYGNAMGWYRQAPGKERELVASITSRGDNTYYADSVKGRFTISRDNAKNTVYFQMNSLKPEDTAVYYCAAGTVYYTYLWMGYWGQGTQVTVSS	low polyreactivity
QVQLVDSGGGLVQAGGSLSLSCAASGSTFVVNAMGWYRQAPGKERELVAAITQSGGSTFYADSVKGRFTISRDNAKNTVYLQMNSLKPEDTAVYYWGQGTQVTVSS	low polyreactivity
QVQMQEIGGGLVQASGSLRLSCAASGNIFPDYFMGWYRLAPGKEREFVANITGGSTTNYADSVKGRFTISRDNAKNTVYLQINSLKPEDTAVYYCAVNFGTEQHAYWGQGTQVTVSS	high polyreactivity
QVKLVESGGGLVQAGGSLRLSCAASGSIFGGNAMGWYRQAPGKEREFVARITKRGGSTDYADSVKGRFTISRDNAKNTVYLQMNSLKPEDTAVYYCATGWTSKVHYRYGYWGQGTQVTVSS	high polyreactivity

Sequence	polyreactivity (PSR sort gate)
QFQLVESGGGLVQAGGSLRLSCAASGRTFGSNVRGWYRQAPGKERELVAAISVSGGSTYYADSVKGRFTISRDNAKNTVYLQMNSLKPDDTAVYYCAADYPTLGYTQNDYWGQGTQVTVSS	low polyreactivity
QVQLLESGGGLVQAGGSLRLSCPASGRIFGSYAMRSYRKAPGKERDFVAAISRTGGSTYYADSVKGRFTISRDNAKNTVYLQFTSLKPEDTAVYYCAASYRWRFVRGYYWGQGTQVNVSS	high polyreactivity
QVQLEESGGGLVQAGGSLRLSCAASGRIFTANAMGWYRQAPGKERELVASISYRSGRTRYADSVKGRFTISRDNAKNTVYLQMNSLKPEDTAVYYCATDRGRRYDYWGQGTQVTVSS	high polyreactivity
QVQLVESGGGLVQAGGSLRLSCAASGRTFYYYAMGWYRQAPGKERELVAAISGSGTNTYYADSVKGRFTISRDNAKNTVYLQMNSLKPEDTAVYYCAAEYFGFYTDGGVFDLYYWGQGTQVTVSS	low polyreactivity
QVQLVESGGGLVKAGGSLRLSCAASGRTFRDNAMGWYIQAPGKERELVADIDIDSSTYYADSVKGRFTISRDNAKNTVYLQMNSLKPEDTAVYYCAATFTYLGYWYDYWGQCTQVTVSS	low polyreactivity
QVQLVESGGGLVQAGGSLRLSCAASGFIFYSYAMGWYRQAPGKERELVAAISTSGGSTYYADSVKGRFTISRDNAKNTVYLQMNSLKPEDTAVYYCNARGTRASRYDYWGQGTQVTVSS	high polyreactivity
QVQLVESGGGFVQAGGSLRLSCAASGSIFVTYAKGWYRQAPGKERDLVAAIKYSGGSTYYADSVKGRFTISRDYAKNTVYLQMNSLKPEDTAVYYCAADERVDQGWIRMDYWGQGTQVTVSS	low polyreactivity
QVQLVESGGGLVQAVGSLRLSCAASGSIFQPYAMGWYRQAPGKERELVAAISIGDSTNYADSVKGRFTISRDNAKNTVYLQMNSLKPEDTAVYYCNTTGEYYDYWGQGTQVTVSS	low polyreactivity
QVQLVESGGGLVQAGGSLRLSCSASGLIYYYYTMGWYRPPPGKERELVAVISSSGGSTYYADSVKGRFTISRDNAKNTVYLQMNSLKPEDTAVYYCAAVYHFQYGAYDYWGQGTQGTVSS	high polyreactivity
QVQIVESGGGLVQAGGSLRLSCAASGRIFQPYAMGWYRQATGKERELVAAITRRAGSTYYADSVKGRFTISRDNANNTVYVQMNSLKPEDTAVYYCAARGLYWAYEMEYWGQGTQVTVSS	low polyreactivity
QVQLVESGGGLVQAGGSLRLSCASSGFTFRYYTMGLYRQAPGKERELVASITWRGGSTYYADSVKGRFTISRDNAKNTVYLQMNCLKPEDTAVYYCNAERPYQYYPGIYRWYYYWGQGTQVTVSS	low polyreactivity
QVQLVESGGGLVQSGRSLRLSCAASGSISVWYVMGWYRPAPGKEMELVAAITRSGGSTFYAYSVKGRFTISRDNAKNTVYLQMNSLKPEDTAVYYCAADGGVAWGYGYWGQGTQVTVSS	low polyreactivity
QVQLVESGGGLVQAGGSLRLSCAASGYIFDIYAMGWYRQAPGKEMQLVAVITRSGGGTYYADSVKGRFTISRDNAKNTVYLQMNSLKPEDTAVYYCAAESFVYGGSDYDYWGQGTQVTVSS	low polyreactivity
QVQLVESGGGLVQAGGSLRLSCAASGSTFGVYAMGWYRQAPGKERELVAAIRWSSGSTYYADSVKGRFTISRDNAKNTVYLQMNSLKPEDTAVYYCAKTRGIYNIRFGYWGQGTQVTVSS	high polyreactivity
QDQLVESGGGLVQAGVSLRLRSAASGFISQENAMGWYRQAPGKDRELVATISGSVGITYYADSVKGRFTISRDNAKNTVYLQMNSLKPEDTAVYYCNKEISYLSWGYDYWGLGTQVTVSS	low polyreactivity
QVQLVESGGGLVQAGGSLRLSCAATGSIFLYYAMGWYRQAPGKERELVAGINRVGSTNYADSVKGRFTISRDNAKNTVYLELNSLKPEDTAVYYCAAKYRNRYDYWGQGTQATVSS	low polyreactivity
QVQLVETGGGLVQAGGSLRISCAASGFTISFYAMAWYRHAPGKERELVAAISSGGRTSYADSVKGRFTISRDNAKNTVYLQMNSLTPEATAVYYCAATNRWYYRAAAAVYAFGYWGHGTQVTVSS	high polyreactivity
QVQLVDSGGGLVQAVGSLRLSCAASGSIFRLNAMGWYRQAPGKERDLVGAITWSDSSTYYADSVKGRFTISRDNAKNTVYLQMNSLKPEDTAVYYCAADPQSYKYDYWGQGTQVTVSS	low polyreactivity
QVQLVESGGGLVQAGGSLRLSCAASGRTFWGYAMGWYRQAPGKERELVAAISLSGGRTNYADSVKGRFTISRDNAKNTVYLQMNSLKPEDTAVYYCAADKRPDGRMDYWGQGTQVTVSS	high polyreactivity
QFQLVESGGGLVQAGGSLRLSCAASGSIFFIYAMGWYRQAPGKERELVATITSGGSTYYADSVKGRFTISRDNAKNTVYLQMNSLKPEDTAVYYCAVDEYFAFDYWGQGTQVTVSS	low polyreactivity
QVQLVESGGGLVQAGGSLRLSCAASGRTFYYYTMGWYRQAPGKDRELVAAIRGSGGSTYYADSVKGRFTISRDNAKNTVYLQMNSLKPEVTAVYYCNATRRRSARYGYISAYDYWGQGTQVTVSS	high polyreactivity
